From US20150344570A1 (published 2015) come the findings set out here.

To fix the notation:
T1: FcγRIIa H (FcγRIIa type H, His at position 131), extracellular domain with C-terminal His tag (human, UniProt P12318 34-217)
T1 construct: extracellular domain; also called FcgRIIa H; 2aH
T1 sequence (looked up): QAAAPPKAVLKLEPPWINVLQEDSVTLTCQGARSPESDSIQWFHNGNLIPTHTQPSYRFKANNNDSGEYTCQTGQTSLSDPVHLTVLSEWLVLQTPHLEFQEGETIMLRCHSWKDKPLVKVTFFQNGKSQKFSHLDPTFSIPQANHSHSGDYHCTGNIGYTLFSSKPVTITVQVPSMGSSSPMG

B1: GpH7-A5/GpH7-B3 variant I332_02A/GpL16-k0 (antibody, human IgG1, kappa)
heavy 1: not shown
heavy 2: not shown
light: DIVMTQSPLSLPVTPGEPASISCQASESLVHSNRNTYLHWYLQKPGQSPQLLIYKVSNRFSGVPDRFSGSGSGTDFTLKISRVEAEDVGVYYCSQNTHVPPTFGQGTKVEIERTVAAPSVFIFPPSDEQLKSGTASVVCLLNNFYPREAKVQWKVDNALQSGNSQESVTEQDSKDSTYSLSSTLTLSKADYEKHKVYACEVTHQGLSSPVTKSFNRGEC
notes: one H chain mutated; also called He Ab
B2: GpH7-A5/GpH7-B3 variant I332_06M/GpL16-k0 (antibody, human IgG1, kappa)
heavy 1: not shown
heavy 2: not shown
light: DIVMTQSPLSLPVTPGEPASISCQASESLVHSNRNTYLHWYLQKPGQSPQLLIYKVSNRFSGVPDRFSGSGSGTDFTLKISRVEAEDVGVYYCSQNTHVPPTFGQGTKVEIERTVAAPSVFIFPPSDEQLKSGTASVVCLLNNFYPREAKVQWKVDNALQSGNSQESVTEQDSKDSTYSLSSTLTLSKADYEKHKVYACEVTHQGLSSPVTKSFNRGEC
notes: as for B1
B3: GpH7-A5/GpH7-B3 variant G236_10E/GpL16-k0 (antibody, human IgG1, kappa)
heavy 1: not shown
heavy 2: not shown
light: DIVMTQSPLSLPVTPGEPASISCQASESLVHSNRNTYLHWYLQKPGQSPQLLIYKVSNRFSGVPDRFSGSGSGTDFTLKISRVEAEDVGVYYCSQNTHVPPTFGQGTKVEIERTVAAPSVFIFPPSDEQLKSGTASVVCLLNNFYPREAKVQWKVDNALQSGNSQESVTEQDSKDSTYSLSSTLTLSKADYEKHKVYACEVTHQGLSSPVTKSFNRGEC
notes: as for B1
B4: GpH7-A5/GpH7-B3 variant G236_07I/GpL16-k0 (antibody, human IgG1, kappa)
heavy 1: not shown
heavy 2: not shown
light: DIVMTQSPLSLPVTPGEPASISCQASESLVHSNRNTYLHWYLQKPGQSPQLLIYKVSNRFSGVPDRFSGSGSGTDFTLKISRVEAEDVGVYYCSQNTHVPPTFGQGTKVEIERTVAAPSVFIFPPSDEQLKSGTASVVCLLNNFYPREAKVQWKVDNALQSGNSQESVTEQDSKDSTYSLSSTLTLSKADYEKHKVYACEVTHQGLSSPVTKSFNRGEC
notes: as for B1
B5: GpH7-A5/GpH7-B3 variant H268_09D/GpL16-k0 (antibody, human IgG1, kappa)
heavy 1: not shown
heavy 2: not shown
light: DIVMTQSPLSLPVTPGEPASISCQASESLVHSNRNTYLHWYLQKPGQSPQLLIYKVSNRFSGVPDRFSGSGSGTDFTLKISRVEAEDVGVYYCSQNTHVPPTFGQGTKVEIERTVAAPSVFIFPPSDEQLKSGTASVVCLLNNFYPREAKVQWKVDNALQSGNSQESVTEQDSKDSTYSLSSTLTLSKADYEKHKVYACEVTHQGLSSPVTKSFNRGEC
notes: as for B1
B6: GpH7-A5/GpH7-B3 variant I332_10E/GpL16-k0 (antibody, human IgG1, kappa)
heavy 1: not shown
heavy 2: not shown
light: DIVMTQSPLSLPVTPGEPASISCQASESLVHSNRNTYLHWYLQKPGQSPQLLIYKVSNRFSGVPDRFSGSGSGTDFTLKISRVEAEDVGVYYCSQNTHVPPTFGQGTKVEIERTVAAPSVFIFPPSDEQLKSGTASVVCLLNNFYPREAKVQWKVDNALQSGNSQESVTEQDSKDSTYSLSSTLTLSKADYEKHKVYACEVTHQGLSSPVTKSFNRGEC
notes: as for B1
B7: GpH7-A5/GpH7-B3 variant I332_03V/GpL16-k0 (antibody, human IgG1, kappa)
heavy 1: not shown
heavy 2: not shown
light: DIVMTQSPLSLPVTPGEPASISCQASESLVHSNRNTYLHWYLQKPGQSPQLLIYKVSNRFSGVPDRFSGSGSGTDFTLKISRVEAEDVGVYYCSQNTHVPPTFGQGTKVEIERTVAAPSVFIFPPSDEQLKSGTASVVCLLNNFYPREAKVQWKVDNALQSGNSQESVTEQDSKDSTYSLSSTLTLSKADYEKHKVYACEVTHQGLSSPVTKSFNRGEC
notes: as for B1
B8: GpH7-A5/GpH7-B3 variant G236_03V/GpL16-k0 (antibody, human IgG1, kappa)
heavy 1: not shown
heavy 2: not shown
light: DIVMTQSPLSLPVTPGEPASISCQASESLVHSNRNTYLHWYLQKPGQSPQLLIYKVSNRFSGVPDRFSGSGSGTDFTLKISRVEAEDVGVYYCSQNTHVPPTFGQGTKVEIERTVAAPSVFIFPPSDEQLKSGTASVVCLLNNFYPREAKVQWKVDNALQSGNSQESVTEQDSKDSTYSLSSTLTLSKADYEKHKVYACEVTHQGLSSPVTKSFNRGEC
notes: as for B1
B9: GpH7-A5/GpH7-B3 variant H268_18N/GpL16-k0 (antibody, human IgG1, kappa)
heavy 1: not shown
heavy 2: not shown
light: DIVMTQSPLSLPVTPGEPASISCQASESLVHSNRNTYLHWYLQKPGQSPQLLIYKVSNRFSGVPDRFSGSGSGTDFTLKISRVEAEDVGVYYCSQNTHVPPTFGQGTKVEIERTVAAPSVFIFPPSDEQLKSGTASVVCLLNNFYPREAKVQWKVDNALQSGNSQESVTEQDSKDSTYSLSSTLTLSKADYEKHKVYACEVTHQGLSSPVTKSFNRGEC
notes: as for B1
B10: GpH7-A5/GpH7-B3 variant I332_04F/GpL16-k0 (antibody, human IgG1, kappa)
heavy 1: not shown
heavy 2: not shown
light: DIVMTQSPLSLPVTPGEPASISCQASESLVHSNRNTYLHWYLQKPGQSPQLLIYKVSNRFSGVPDRFSGSGSGTDFTLKISRVEAEDVGVYYCSQNTHVPPTFGQGTKVEIERTVAAPSVFIFPPSDEQLKSGTASVVCLLNNFYPREAKVQWKVDNALQSGNSQESVTEQDSKDSTYSLSSTLTLSKADYEKHKVYACEVTHQGLSSPVTKSFNRGEC
notes: as for B1
B11: GpH7-A5/GpH7-B3 variant I332_09D/GpL16-k0 (antibody, human IgG1, kappa)
heavy 1: not shown
heavy 2: not shown
light: DIVMTQSPLSLPVTPGEPASISCQASESLVHSNRNTYLHWYLQKPGQSPQLLIYKVSNRFSGVPDRFSGSGSGTDFTLKISRVEAEDVGVYYCSQNTHVPPTFGQGTKVEIERTVAAPSVFIFPPSDEQLKSGTASVVCLLNNFYPREAKVQWKVDNALQSGNSQESVTEQDSKDSTYSLSSTLTLSKADYEKHKVYACEVTHQGLSSPVTKSFNRGEC
notes: as for B1
B12: GpH7-A5/GpH7-B3 variant A330_12R/GpL16-k0 (antibody, human IgG1, kappa)
heavy 1: not shown
heavy 2: not shown
light: DIVMTQSPLSLPVTPGEPASISCQASESLVHSNRNTYLHWYLQKPGQSPQLLIYKVSNRFSGVPDRFSGSGSGTDFTLKISRVEAEDVGVYYCSQNTHVPPTFGQGTKVEIERTVAAPSVFIFPPSDEQLKSGTASVVCLLNNFYPREAKVQWKVDNALQSGNSQESVTEQDSKDSTYSLSSTLTLSKADYEKHKVYACEVTHQGLSSPVTKSFNRGEC
notes: as for B1
B13: GpH7-A5/GpH7-B3 variant I332_13S/GpL16-k0 (antibody, human IgG1, kappa)
heavy 1: not shown
heavy 2: not shown
light: DIVMTQSPLSLPVTPGEPASISCQASESLVHSNRNTYLHWYLQKPGQSPQLLIYKVSNRFSGVPDRFSGSGSGTDFTLKISRVEAEDVGVYYCSQNTHVPPTFGQGTKVEIERTVAAPSVFIFPPSDEQLKSGTASVVCLLNNFYPREAKVQWKVDNALQSGNSQESVTEQDSKDSTYSLSSTLTLSKADYEKHKVYACEVTHQGLSSPVTKSFNRGEC
notes: as for B1
B14: GpH7-A5/GpH7-B3 variant H268_10E/GpL16-k0 (antibody, human IgG1, kappa)
heavy 1: not shown
heavy 2: not shown
light: DIVMTQSPLSLPVTPGEPASISCQASESLVHSNRNTYLHWYLQKPGQSPQLLIYKVSNRFSGVPDRFSGSGSGTDFTLKISRVEAEDVGVYYCSQNTHVPPTFGQGTKVEIERTVAAPSVFIFPPSDEQLKSGTASVVCLLNNFYPREAKVQWKVDNALQSGNSQESVTEQDSKDSTYSLSSTLTLSKADYEKHKVYACEVTHQGLSSPVTKSFNRGEC
notes: as for B1
B15: GpH7-A5/GpH7-B3 variant H268_13S/GpL16-k0 (antibody, human IgG1, kappa)
heavy 1: not shown
heavy 2: not shown
light: DIVMTQSPLSLPVTPGEPASISCQASESLVHSNRNTYLHWYLQKPGQSPQLLIYKVSNRFSGVPDRFSGSGSGTDFTLKISRVEAEDVGVYYCSQNTHVPPTFGQGTKVEIERTVAAPSVFIFPPSDEQLKSGTASVVCLLNNFYPREAKVQWKVDNALQSGNSQESVTEQDSKDSTYSLSSTLTLSKADYEKHKVYACEVTHQGLSSPVTKSFNRGEC
notes: as for B1
B16: GpH7-B3 variant T335_13S/GpL16-k0 (antibody, human IgG1, kappa)
heavy: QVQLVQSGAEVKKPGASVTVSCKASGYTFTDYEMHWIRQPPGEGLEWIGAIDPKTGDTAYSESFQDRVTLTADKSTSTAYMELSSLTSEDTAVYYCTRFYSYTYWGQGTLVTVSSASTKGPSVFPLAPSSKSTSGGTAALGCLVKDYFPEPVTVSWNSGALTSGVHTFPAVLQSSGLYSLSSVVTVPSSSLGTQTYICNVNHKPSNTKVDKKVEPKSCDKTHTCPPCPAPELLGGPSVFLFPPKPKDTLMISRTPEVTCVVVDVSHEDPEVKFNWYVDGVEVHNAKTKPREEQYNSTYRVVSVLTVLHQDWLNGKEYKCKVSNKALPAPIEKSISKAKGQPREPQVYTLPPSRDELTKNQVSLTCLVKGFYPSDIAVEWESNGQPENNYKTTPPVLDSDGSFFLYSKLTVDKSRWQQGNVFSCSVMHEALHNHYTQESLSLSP
light: DIVMTQSPLSLPVTPGEPASISCQASESLVHSNRNTYLHWYLQKPGQSPQLLIYKVSNRFSGVPDRFSGSGSGTDFTLKISRVEAEDVGVYYCSQNTHVPPTFGQGTKVEIERTVAAPSVFIFPPSDEQLKSGTASVVCLLNNFYPREAKVQWKVDNALQSGNSQESVTEQDSKDSTYSLSSTLTLSKADYEKHKVYACEVTHQGLSSPVTKSFNRGEC
notes: both H chains mutated; also called Ho Ab
B17: GpH7-B3 variant T335_19Q/GpL16-k0 (antibody, human IgG1, kappa)
heavy: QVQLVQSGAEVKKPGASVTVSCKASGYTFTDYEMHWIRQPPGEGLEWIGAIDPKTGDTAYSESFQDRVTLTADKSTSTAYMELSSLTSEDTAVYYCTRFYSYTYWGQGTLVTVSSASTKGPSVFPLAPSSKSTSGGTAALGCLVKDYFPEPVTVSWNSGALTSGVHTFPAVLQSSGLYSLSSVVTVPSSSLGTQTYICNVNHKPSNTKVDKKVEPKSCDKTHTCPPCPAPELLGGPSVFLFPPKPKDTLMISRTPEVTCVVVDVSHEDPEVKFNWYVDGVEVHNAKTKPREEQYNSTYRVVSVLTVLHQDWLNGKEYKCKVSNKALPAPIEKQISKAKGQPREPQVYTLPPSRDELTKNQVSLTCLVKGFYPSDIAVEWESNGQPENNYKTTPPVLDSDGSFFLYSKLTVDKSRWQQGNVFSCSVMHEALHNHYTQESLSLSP
light: DIVMTQSPLSLPVTPGEPASISCQASESLVHSNRNTYLHWYLQKPGQSPQLLIYKVSNRFSGVPDRFSGSGSGTDFTLKISRVEAEDVGVYYCSQNTHVPPTFGQGTKVEIERTVAAPSVFIFPPSDEQLKSGTASVVCLLNNFYPREAKVQWKVDNALQSGNSQESVTEQDSKDSTYSLSSTLTLSKADYEKHKVYACEVTHQGLSSPVTKSFNRGEC
notes: as for B16
B18: GpH7-B3 variant T335_15Y/GpL16-k0 (antibody, human IgG1, kappa)
heavy: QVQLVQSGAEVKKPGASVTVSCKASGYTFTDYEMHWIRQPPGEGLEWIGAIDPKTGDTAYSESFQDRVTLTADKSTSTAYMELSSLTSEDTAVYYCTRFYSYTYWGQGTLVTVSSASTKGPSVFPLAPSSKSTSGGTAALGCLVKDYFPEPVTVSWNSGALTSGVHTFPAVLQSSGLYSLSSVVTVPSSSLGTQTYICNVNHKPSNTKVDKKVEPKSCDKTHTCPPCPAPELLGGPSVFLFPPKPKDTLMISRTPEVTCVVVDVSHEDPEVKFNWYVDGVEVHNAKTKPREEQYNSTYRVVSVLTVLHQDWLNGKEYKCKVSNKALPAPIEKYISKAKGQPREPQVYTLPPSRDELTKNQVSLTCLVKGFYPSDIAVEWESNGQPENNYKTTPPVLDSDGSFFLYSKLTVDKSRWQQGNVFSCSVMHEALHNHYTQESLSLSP
light: DIVMTQSPLSLPVTPGEPASISCQASESLVHSNRNTYLHWYLQKPGQSPQLLIYKVSNRFSGVPDRFSGSGSGTDFTLKISRVEAEDVGVYYCSQNTHVPPTFGQGTKVEIERTVAAPSVFIFPPSDEQLKSGTASVVCLLNNFYPREAKVQWKVDNALQSGNSQESVTEQDSKDSTYSLSSTLTLSKADYEKHKVYACEVTHQGLSSPVTKSFNRGEC
notes: as for B16
B19: GpH7-B3 variant T335_16H/GpL16-k0 (antibody, human IgG1, kappa)
heavy: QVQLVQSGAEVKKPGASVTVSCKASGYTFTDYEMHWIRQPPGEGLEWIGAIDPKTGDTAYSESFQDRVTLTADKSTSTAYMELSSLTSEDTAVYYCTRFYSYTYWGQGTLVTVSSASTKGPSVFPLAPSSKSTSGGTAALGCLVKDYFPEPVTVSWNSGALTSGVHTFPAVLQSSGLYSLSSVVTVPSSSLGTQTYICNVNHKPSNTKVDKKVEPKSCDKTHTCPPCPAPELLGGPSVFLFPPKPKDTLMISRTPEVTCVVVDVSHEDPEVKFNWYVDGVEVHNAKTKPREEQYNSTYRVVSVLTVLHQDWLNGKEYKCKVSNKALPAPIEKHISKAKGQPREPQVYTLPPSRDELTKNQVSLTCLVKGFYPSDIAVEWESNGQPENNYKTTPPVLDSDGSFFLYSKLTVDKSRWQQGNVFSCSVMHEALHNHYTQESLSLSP
light: DIVMTQSPLSLPVTPGEPASISCQASESLVHSNRNTYLHWYLQKPGQSPQLLIYKVSNRFSGVPDRFSGSGSGTDFTLKISRVEAEDVGVYYCSQNTHVPPTFGQGTKVEIERTVAAPSVFIFPPSDEQLKSGTASVVCLLNNFYPREAKVQWKVDNALQSGNSQESVTEQDSKDSTYSLSSTLTLSKADYEKHKVYACEVTHQGLSSPVTKSFNRGEC
notes: as for B16

In the first experiment the target is T1, FcγRIIa H (FcγRIIa type H, His at …). Briefly: SPR Biacore, relative binding, GpH7-A5/GpH7-B3/GpL16-k0 (HeCon Ab)=100. As for the experimental part:
Analysis of interaction between objective antibody and the FcγR was carried out using Biacore T100 (GE Healthcare). HBS-EP+ (GE Healthcare) was used as the running buffer, and the measurement temperature was set to 25° C. Chips produced by immobilizing the antigen peptide by the amine coupling method to a Series S Sencor Chip CM5 (GE Healthcare), or alternatively, chips produced by allowing preliminarily biotinylated antigen peptides to interact with and immobilize onto a Series S Sensor Chip SA (certified) (GE Healthcare) were used. Antibodies of interest were captured onto an antigen peptide-immobilized chip, and allowed to interact to each FcγR diluted with running buffer. To regenerate and repeatedly use the chip, the antibodies captured on the chip were washed off by reacting 10 mM glycine-HCl, pH 1.5.
Background: In SPR one partner is held on a chip, and binding of the other changes the refractive index at the surface.
As to B1, the He/Con_2aH was 111 % of control.

Take B2: the He/Con_2aH is 110 % of control.

Regarding B3, the He/Con_2aH was 111 % of control.

On to B4, for which the He/Con_2aH is 115 % of control.

On to B5, for which the He/Con_2aH is 133 % of control.

In the case of B6, the He/Con_2aH was 108 % of control.

Consider B7, for which the He/Con_2aH was 105 % of control.

For the molecule B8, the He/Con_2aH was 119 % of control.

Turning to B9, the He/Con_2aH is 112 % of control.

In the case of B10, the He/Con_2aH was 104 % of control.

Consider B11, for which the He/Con_2aH was 118 % of control.

Take B12: the He/Con_2aH was 108 % of control.

On to B13, for which the He/Con_2aH was 110 % of control.

Turning to B14, the He/Con_2aH is 124 % of control.

Take B15: the He/Con_2aH was 112 % of control.

A further experiment has the same target. The experiment can be described thus: SPR Biacore, relative binding, GpH7-B3/GpL16-k0 (HoCon Ab)=100.
Consider B16, for which the Ho/Con_2aH was 101 % of control.

Turning to B17, the Ho/Con_2aH was 103 % of control.

In the case of B18, the Ho/Con_2aH is 102 % of control.

On to B19, for which the Ho/Con_2aH was 100 % of control.
